Data from US20060141546A1, “Bacterial test method by glycated label binding” (priority 2002, published 2006).

Legend:
[1] = test system: Yeasts including Candida albicans; test: ALP binding compared to Sf (Table 1)
Experimental: (§1) Bacterial cells ([…] to 10^8 cells/mL) were washed twice with water after centrifugation to separate the cells into a packed pellet from supernatant liquid. The washed cells in pellet form were suspended in 40 μL water and 10 μL of aqueous bovine intestinal alkaline phosphatase (ALP) was added (2 μg or […]). The mixture was left at room temperature for 30 minutes and then centrifuged, after which the bacterial pellets were washed with water 4-5 times (50 μL). All the washing supernatants were combined. A blank without cells was diluted in the same way. The final pellets were suspended in 50 μl water and both supernatants and cell suspensions were assayed for detection of ALP binding using 2.5 μl of 0.005 M para-nitrophenol phosphate (PNPP) in Tris or EPPS buffer at pH 7.5. The hydrolysis of the substrate results in yellow (PNPP) or blue-green (BCIP) color that is directly proportional to the amount of ALP bound to the bacteria. Alkaline phosphatase (ALP) activity was tested using common substrates such as BCIP (bromo-chloro-indolyl-phosphate) forming a blue/green color in Tris buffer, pH 7.5. After 10 minutes at room temperature the samples were read in a plate reader (Biotek Powerwave Absorbance Reader) at a wavelength of 405 nm. The parallel set of bacteria was run without addition of ALP as controls.
(§2) The bacteria used to illustrate the invention represent the extremes of gram positive (S. facaelis) and gram negative (E. coli) bacteria. […] The nature of the difference in the cell walls is greatest between the gram negative and positive forms of bacteria.

Enterococcus sp. = test: ALP binding compared to Sf (Table 1)
Experimental: as §1, §2

Group B streptococcus = test: ALP binding compared to Sf (Table 1)
Experimental: as §1, §2

Streptococcus viridans = test: ALP binding compared to Sf (Table 1)
Experimental: as §1, §2

[2] = test system: Staphylococcus aureus (Sf) strains # 3 and #6; test: Bacteria assay by binding of intestinal ALP (Example 1, FIG. 8); conditions: gram positive, strains # 3 and #6, FIG. 8
Experimental: as §1

bacteria = test: Saturation binding / Scatchard analysis of glycoprotein binding to bacteria; conditions: ALP to bacteria
Source text: There are several methods used to measure binding affinity. The methods of Lineweaver-Burke and Eadie-Hofstee are most popular. The data is used to create a Scatchard plot, where the X axis is the glycoprotein bound and the Y axis is glycoprotein bound divided by the free glycoprotein. From this graph the number of binding sites (also called Bmax, receptor number) is the X intercept and binding constant (also called affinity constant, Kd, or the equilibrium dissociation constant) is the negative reciprocal of the slope. Changes in slope reflect changes in the nature of binding sites and are often used to separate high affinity binding from low affinity binding sites. Commercially available software (GraphPad software Inc) exist to perform this analysis. Only high affinity binding was used in the instant experiments.
Experimentally, saturation binding experiments are used measure glycoprotein binding at equilibrium at various concentrations of the glycoprotein. The saturation curve is a first constructed to plot the concentration of glycoprotein ligand on the X axis versus the all glycoprotein bound on the cell expressed as concentration of glycoprotein bound/number of bacteria cells on the Y axis. […] This same data is next plotted as a Scatchard plot with the number of binding sites and binding constants determined for the pairs of glycoprotein and bacteria tested. […]

Citrobacter koseri = test: ALP binding compared to E. coli (Table 1)
Experimental: as §1, §2

Klebsiella oxytoca = test: ALP binding compared to E. coli (Table 1)
Experimental: as §1, §2

Proteus mirabilis = test: ALP binding compared to E. coli (Table 1)
Experimental: as §1, §2

Pseudomonas aeruginosa = test: ALP binding compared to E. coli (Table 1)
Experimental: as §1, §2

Diphtheroids (gnb) = test: ALP binding compared to E. coli (Table 1)
Experimental: as §1, §2

Serratia marcescens = test: ALP binding compared to E. coli (Table 1)
Experimental: as §1, §2

Morganella morganii = test: ALP binding compared to E. coli (Table 1)
Experimental: as §1, §2

Citrobacter freundii = test: ALP binding compared to E. coli (Table 1)
Experimental: as §1, §2

Klebsiella pneumoniae = test: ALP binding compared to E. coli (Table 1)
Experimental: as §1, §2

E. coli = test: Membrane (Loprodyne) separation of bacteria bound ALP (Example 6, Table 4); type: binding
Experimental: Bacteria bound to alkaline phosphatase (ALP) can be separated using a membrane (low protein binding Nylon 66 Loprodyne) on backed microtiter plates (Nunc Nalge International).
The loprodyne-membrane-backed plates were treated with 1 or 2% detergent (Tween 20 or TritonX305) in water or buffers (TBS: Tris, 25 mM, pH 7.6 containing 150 mM NaCl or KCO3: 0.1M, pH 9.6) overnight at room temperature. Blocking solutions were vacuum filtered. […] The combined solution was incubated for 15 min at 37° C. on a shaker and then added to the loprodyne-membrane-backed plate.
The solution was vacuum filtered leaving bacteria adhered on the membrane and then washed twice with 2% Tween20 in water. To the washed membrane, 200 μl of H2O with 50 μl Glycine (0.05M, pH 10.4) and containing 1 mM PNPP were added and the color formed due to the bacteria bound ALP read at 405 nm.
The separation of E. Coli with bound ALP from unbound ALP is shown by a size exclusion membrane in Example 6 and by centrifugation in Examples 1-5. The size of E. Coli is 1×1×2 μm and any membrane, filter or device trapping particles of this size would be acceptable. These include microfluidic devices, filters, column chromatography and chromatography strips. The mass of E. Coli is 1.6×10^−12 gm/cell and any membrane, filter or device trapping a mass of this size would be also acceptable.

B1: ALP: bovine intestinal alkaline phosphatase, glycoprotein enzyme that binds bacteria and serves as label (protein, UniProt P19111 20-506, looked up)
Intestinal-type alkaline …: LVPVEEEDPAFWNRQAAQALDVAKKLQPIQTAAKNVILFLGDGMGVPTVTATRILKGQMNGKLGPETPLAMDQFPYVALSKTYNVDRQVPDSAGTATAYLCGVKGNYRTIGVSAAARYNQCKTTRGNEVTSVMNRAKKAGKSVGVVTTTRVQHASPAGAYAHTVNRNWYSDADLPADAQMNGCQDIAAQLVNNMDIDVILGGGRKYMFPVGTPDPEYPDDASVNGVRKRKQNLVQAWQAKHQGAQYVWNRTALLQAADDSSVTHLMGLFEPADMKYNVQQDHTKDPTLQEMTEVALRVVSRNPRGFYLFVEGGRIDHGHHDDKAYMALTEAGMFDNAIAKANELTSELDTLILVTADHSHVFSFGGYTLRGTSIFGLAPSKALDSKSYTSILYGNGPGYALGGGSRPDVNDSTSEDPSYQQQAAVPQASETHGGEDVAVFARGPQAHLVHGVEEETFVAHIMAFAGCVEPYTDCNLPAPTTATSIPD
- ALP binding relative to sf. [1]: 93%
- ALP binding relative to sf. (Enterococcus sp.): 100%
- ALP binding relative to sf. (Group B streptococcus): 96%
- ALP binding relative to sf. (Streptococcus viridans): 102%
- ALP binding to bacteria (ALP activity of suspended cells after ALP treatment and washings) [2]: found to bind the ALP
- binding constant (bacteria; Scatchard analysis, high affinity binding): 5×10^+6
- number of binding sites (bacteria; estimated from the Scatchard analysis): 590
- ALP binding relative to E. coli (Citrobacter koseri): 93%
- ALP binding relative to E. coli (Klebsiella oxytoca): 111%
- ALP binding relative to E. coli (Proteus mirabilis): 104%
- ALP binding relative to E. coli (Pseudomonas aeruginosa): 99%
- ALP binding relative to E. coli (Diphtheroids (gnb)): 91%
- ALP binding relative to E. coli (Serratia marcescens): 101%
- ALP binding relative to E. coli (Morganella morganii): 95%
- ALP binding relative to E. coli (Citrobacter freundii): 89%
- ALP binding relative to E. coli (Klebsiella pneumoniae): 105%
- Bacteria Binding to ALP (O.D. at 405 nm) (E. coli; No Bacteria, ALP concentration 1.0 mU): 0.04 O.D.
- Bacteria Binding to ALP (O.D. at 405 nm) (E. coli; No Bacteria, ALP concentration 2.0 mU): 0.05 O.D.
- Bacteria Binding to ALP (O.D. at 405 nm) (E. coli; No Bacteria, ALP concentration 5.0 mU): 0.16 O.D.
- Bacteria Binding to ALP (O.D. at 405 nm) (E. coli; Plus Bacteria, ALP concentration 1.0 mU): 0.13 O.D.
- Bacteria Binding to ALP (O.D. at 405 nm) (E. coli; Plus Bacteria, ALP concentration 2.0 mU): 0.30 O.D.
- Bacteria Binding to ALP (O.D. at 405 nm) (E. coli; Plus Bacteria, ALP concentration 5.0 mU): 0.83 O.D.
